US20190248883 (published 2019)
One block for each binder: values may come before it.

What was measured:
[1] = molecular target: GRO-beta (human, UniProt P19875); test: ELISA
[2] = molecular target: GRO-alpha (human, UniProt P09341); test: ELISA
[3] = molecular target: IP-10 (human, UniProt P02778); test: ELISA
[4] = molecular target: T1, IL-8 (human, UniProt P10145); test: SPR, 37C, bivalent
[5] = molecular target: T1, IL-8; test: SPR, 25C, bivalent
[6] = molecular target: T1, IL-8; test: SPR, 25C
[7] = molecular target: T1, IL-8; test: SPR, 37C

T1 sequence (P10145 28-99): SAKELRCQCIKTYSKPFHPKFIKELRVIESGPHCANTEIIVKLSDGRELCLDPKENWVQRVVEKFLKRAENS
Chain of IP-10 (P02778 22-98): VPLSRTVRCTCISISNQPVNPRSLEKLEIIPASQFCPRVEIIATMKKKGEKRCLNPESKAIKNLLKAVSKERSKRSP
Chain of GRO-alpha (P09341 35-107): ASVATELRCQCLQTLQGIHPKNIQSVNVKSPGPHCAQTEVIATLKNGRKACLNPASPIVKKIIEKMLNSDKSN
Chain of GRO-beta (P19875 35-107): as the sequence (P09341 35-107) above, with S2P, V3L, P20L, N27K, R48Q, I58M, N68K, S69N, D70G counted along it

binding result [1]: no binding
binding result [2]: no binding
binding result [3]: no binding
Kd [4]: 20 pM
Kd [5]: 10 pM
B1: 10F8 IgG1,kappa (antibody, V domains shown)
VH: QVQLVESGGGVVQPGRSLRLSCTASGFTFSHYGMYWVRQAPGKGLEWVAVIWYDGSYEYNADSVKGRFTISRDNSKNTLYLQMNSLRAEDTAVYYCARDRVGLFDYWGQGTLVTVSS
VL: EIVLTQSPGTLSLSPGERATLSCRASQSISSSYLAWYQQKPGQAPRLLIYGPSSRATGIPDRFSGSGSGTDFTLTISRLEPEDFAVYYCQQYAGSLTFGPGTKVDIK

Kd [6]: 194 pM
Kd [7]: 372 pM
B2: 10F8 Fab (antibody, V domains shown)
VH: B1 VH
VL: B1 VL
